Data reported in the RNAGym collection of RNA variant scans (doi:10.1073/pnas.2313332121).

B1: TPR t1 (parent)
chain: GACCAAUCUGCCCUCAGAGCUCGAGAACAUCUUCGGAUGCAGAGGAGGCAGGCUUCGGUGGCGCGAUAGCGCCAACGUCCUCAACCUCCAAUGCAUCCCACCACAUGAUGAUGCCUGAAGAGCCUUGGUUUUUUG

Variants of: B1
Experiment: polymerase ribozyme fitness, log enrichment relative to wild type (log ratio); higher = more active; in vitro selection for triplet polymerase activity
Procedure, shortened: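 A single round of triplicate in vitro selection, including frozen incubation at −7 °C, was applied to PCR-built, transcribed mutant libraries of each subunit of a heterodimeric triplet polymerase ribozyme. Illumina sequencing of input and output libraries retained genotypes with ≥10 input reads and ≥1 read per output. Fitness is the base-2 logarithm of genotype enrichment divided by wild-type enrichment, from inverse-variance-weighted replicate averages.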

Variant	polymerase ribozyme fitness (log ratio)
GACCAAUCUGCGCUCAGAGCUCGAGAACAUCUUCGGAUGCAGAGGAGGCAGGCUUCGGUGGCGCGAUAGCGCCAACGUCCUCAACCUCCAAUGCAUCCCACCACAUGAUGAUGCCUGAAGAGUCUUGGUUUUUUG [C12G C123U]	1.34
GACCAAUCUGCGCUCAGAGCUCGAGAACAUCUUCGGAUGCAGAGGAGGCAGGCUUCGGUGGCGCGAUAGCGCCAACGUCCUCAACCUUCAAUGCAUCCCACCACUUGAUGAUGCCUGAAGAGACUUGGUUUUUUG [C12G C88U A105U C123A]	-0.335
GACCAAUCUGCGCUCAGAGCUCGAGAACAUCUUCGGAUGCAGAGGAGGCAGGCUUCGGUGGCGCGAUAGCGCCAACGUCCUCAACCUCCAAUGCAUCCCACCACAUGAUGAUGUCUGAAGAGCCUUGGUUUUUUG [C12G C114U]	-1.65
GACCAAUCUGCGCUCAGAGCUCGAGAACAUCUUCGGAUGCAGAGGAGACAGGCUUCGGUAGCGCGAUAGCGCCAACGUCCUCAACCUCCAAUACAUCCCACCACAUGAUGAUGCCUGAAGAGCCUUGGUUUUUUG [C12G G48A G60A G93A]	-1.03
GACCAAUCUGCGCUCAGAGCUCGAGAACAUCUUCGGAUGCAGAGGAGGCAGGCUUCGGUGCCGCGAUAGCGCCAACGUCCUCAACCUCCAAUGCAUCCCACCACAUGAUGAUGCCUGAAGAGCCUUGGUUUUUUG [C12G G61C]	-0.968
GACCAAUCUGCGCUCAGAGCUCGAGAACAUCUUCGGAUGCAGAGGAGGCAGGCUUCGGUGGCGCGAUAGCGCCAACGUCCUUAACCUCCAAUGCAUCCCACCACUAGAGGAUGCCUGAAGAGCCUUGGUUUUUUG [C12G C82U A105U U106A U109G]	-1.76
GACCAAUCUGCGCUCAGAGCUCGAGAACAUCUUCGGAUGCAGAUGAGGCAGGCUUCGGUUGCGCGAUAGCGCCAACGUCCUCAACCUCCAAUGCAUCCCUCCACAUGAUGAUGCCUGAAGAGCCUUGGUUUUUUG [C12G G44U G60U A100U]	-0.779
GACCAAUCUGCGCUCAGAGCUCGAGAACAUCUUCGUAUGCAGAGGAGGCAGGCUUCGGUGGCGCGAUAGCGCCAACGUCCUCAACCUCCAAUGCAUCCCACCACAUGAUGAUGCCUGAAGAGCCUUGGUUUAUUG [C12G G36U U132A]	-1.56
GACCAAUCUGCGCUCAGAGCUCGAGAACAUCUUCGGAUGCAGAGGAGGCAGGCUUCGGUGGCGCAAUAGCGCCAACGUCCUCAACCUCCAAUGCAUCCCACCACAUGAUGAUGCCUGAAGAGCCUUGGUUUUUUG [C12G G65A]	-3.6
GACCAAUCUGCGCUCAGAACUCGAGAACAUCUUCGGAUGCAGAGGAGGCAGGCUUCGGUGGCUCGAUAGCGCCAACGUGCGCAACCUCCAAUGCAUCCCACCACAUGAUGACGCCUUAAGAGCCUUGGUUUUUUG [C12G G19A G63U C79G U81G U112C G117U]	-7.76
GACCAAUCUGCGCUCAGAGCUCGAGAACAUCUUCGGAUGCAGAGGAGGCAGGCUUCGGUGGCGCGAUAGCGCCAACGUCCUCAACCUCUAAUGCAUCCCACCACAUGAUGAUGCCUGAAGAGCCUUGGUUUUUUG [C12G C89U]	-0.711
GACCAAUCUGCGCUCAGAGCUCGAGAACAUCUUCGGAUGCAGAGAAGGCAGGCUUCGGUGGCGCGAUAGCGCCAACGUCCUCAACCUCCAAUGCAUCCCACCACAUUAUGAUGCCUGAAGAGCCUUGGUUUUUUG [C12G G45A G107U]	-5.21
GACCAAUCUGCGCUCAGAGCUCGAGAACAUCUUCGGAUGCAGAUGAGGCAGGCUUCGGUGGCGCGAUAGCGCCAACGUCCUCAACCUCCCAUGCAUCCCACCACAUGAUGAUGCCUGAAGUGCCUUGGUUUUUUG [C12G G44U A90C A121U]	0.668
GACCAAUCUGCGCUCAGAGCUCGAGAACAUCUUCGGAUACAGAGGAGGCAGGCUUCGGUGGCGCGAUAGCGCCAACGUCCUCAACCUCAAAUGCAUCCCACCACACGAUGAUGCCUGAAGAGCCUUGGUUUUUUG [C12G G39A C89A U106C]	-2.19
GACCAAUCUGCGCUCAGAGCUCGAGAACAUCUUCGGAUGCAGAGGAGGCAGGCUUCGGUGGCGCGAUAGCGCCAACGUCCUCAACCUCCAAUGCAUCCCACCACAUGAUGAUACCUGAAGAGCCUUGGUUUUUUG [C12G G113A]	-0.4
GACCAAUCUGCGCUCAGAGCUCGAGAACAUCUUCGGAUGCAGAGGAGGCAGGCUUCGGUGGCGCGAUAGCGCCAACGUCCUUAACCUCCAAUGCAUACCACCACAUGAUGAUGCCUGAAGAGCCUUGGUUUUUUG [C12G C82U C97A]	-3.58
GACCAAUCUGCGCUCAGAGCUCGAGAACAUCUUCGGAUGCAAAGGAGGCAGACUUCGGUGGUGCGAUAGCGCCAACGUCCUCAACCUCCAAUGCAUCCCACCAAAUGAUGAUGCCUGAAGAGCCUUGGUUUUUUG [C12G G42A G52A C62U C104A]	-5.44
GACCAAUCUGCGCGCAGAGCUCGGGAACAUCUUCGGAUGCAGAGGAGGAAGGCUUCGGUGUCGCGAUAGCGCCAACUUCCUCAACCUCCAAUGCAUCCCACCAUAUGAUGAUGCCUGAAGAGCCUUGGUUUUUUG [C12G U14G A24G C49A G61U G77U C104U]	-6.42
GACCAAUCUGCGCUCAGACCUCCAGAACAUCUUCGGAUGCAGAGGAGGCAGGCUUCGGCUGCGCGAUAGCGCCAACGUCCUCAACCUCCAAUGCAUCCCACCACAUGAUGAUGCCUGAAGAGCCUUGGUUUUUUG [C12G G19C G23C U59C G60U]	-6.79
GACCAAUCUGCGCUCAGAGCUCGAGAACAUCUUCGGAUUCAGAGGAGGCAGGCUUCGGUUGCGCGAUAGCGCCAACGUCGUCAACCUCCAAUGCAUCCCACCACAUGAUGAUGCCUGAAGAGUCUUGGUUUUUUG [C12G G39U G60U C80G C123U]	-4.73
GACCAAUCUGCGCACAGAGCUCGAGAACAUCUUCGGAUGCAGAGGAGGCAGGCUUCGGUGGCGCGAUAGCGCCAACGUCCUCAACCUCCAAUGCAUCCCACCACAUGAUGAUGCCUGAAGAGCCUUGGUUUUUUG [C12G U14A]	-1.56
